Results published in patent US5731411, “Promotion of homologous DNA pairing by RecA-derived peptides” (The United States of America as represented by the …).

T1: FECO (RecA residues 193-212 peptide) (Escherichia coli, UniProt P0A7G8 SEQ:1-20)
T1 chain: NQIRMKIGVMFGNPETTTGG

T2: WT-14 (RecA residues 196-209 peptide) (Escherichia coli, UniProt P0A7G8)
T2 chain: RMKIGVMFGNPETT


Key:
[1] = target: T1, FECO (RecA residues 193-212 peptide); experiment: CD, random coil to beta structure, pH 7.5; details: protein: synthetic; tags: synthetic peptide, HPLC purified
[2] = target: T1, FECO (RecA residues 193-212 peptide); experiment: filter; 10 mM MgCl2, pH 8.3, room temp; less tight without Mg; unstacks ssDNA (permanganate); joint molecules with homologous pBluescript but not pUC19 (Example 5); details: protein: synthetic; tags: synthetic peptide, HPLC purified; label: 5' 32P
[3] = target: T2, WT-14 (RecA residues 196-209 peptide); experiment: filter; peptide up to 100 uM, pH 8.3; no joint molecules; details: protein: synthetic; tags: synthetic peptide, HPLC purified; label: 5' 32P

Binder	binding result [1]	binding result [2]	binding result [3]
57-mer ssDNA (ssDNA) DNA: CTGTCTACTCTCGAGGTTAACCCGTGCGAATTCTACGATTGGTGCGGCCGGTATATC	binds	–	–
BS-S1 ssDNA (ssDNA) DNA: GGCCGCTCTAGAACTAGTGGATCCCCCGGGCTGCAGGAATTCGATATCAAGCT	–	binds	no binding
